# Test results published in patent US20190040156A1 (Eli Lilly, published 2019).
# T1: human IL-23 (human, UniProt Q9NPF7 20-189; P29460 23-328)
# T1 sequence (looked up) 1: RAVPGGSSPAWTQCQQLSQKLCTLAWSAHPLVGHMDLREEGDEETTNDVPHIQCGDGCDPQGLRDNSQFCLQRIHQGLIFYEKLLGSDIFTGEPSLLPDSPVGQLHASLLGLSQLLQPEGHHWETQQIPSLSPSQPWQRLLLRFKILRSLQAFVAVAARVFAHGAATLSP
# T1 sequence (looked up) 2: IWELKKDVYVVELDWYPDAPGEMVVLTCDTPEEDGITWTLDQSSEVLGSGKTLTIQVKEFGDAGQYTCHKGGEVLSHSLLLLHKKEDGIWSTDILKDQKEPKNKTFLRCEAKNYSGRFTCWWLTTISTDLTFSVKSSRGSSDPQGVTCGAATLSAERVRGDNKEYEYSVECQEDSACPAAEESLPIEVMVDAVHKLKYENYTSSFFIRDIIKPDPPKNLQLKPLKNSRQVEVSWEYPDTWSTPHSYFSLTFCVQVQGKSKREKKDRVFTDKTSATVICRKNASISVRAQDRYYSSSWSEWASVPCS
# T2: human FcγRIIa (CD32a) (human, UniProt P12318 34-217, limits assumed)
# T2 construct: Soluble analyte in SPR
# T2 sequence (looked up): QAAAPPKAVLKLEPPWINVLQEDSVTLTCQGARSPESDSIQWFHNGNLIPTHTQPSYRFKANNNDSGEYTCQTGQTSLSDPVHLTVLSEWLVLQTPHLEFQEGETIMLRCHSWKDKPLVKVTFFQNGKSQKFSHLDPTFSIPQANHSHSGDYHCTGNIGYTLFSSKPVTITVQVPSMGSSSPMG
# T3: human FcγRIIb (CD32b) (human, UniProt P31994 43-217, limits assumed)
# T3 construct: Soluble analyte in SPR
# T3 sequence (looked up): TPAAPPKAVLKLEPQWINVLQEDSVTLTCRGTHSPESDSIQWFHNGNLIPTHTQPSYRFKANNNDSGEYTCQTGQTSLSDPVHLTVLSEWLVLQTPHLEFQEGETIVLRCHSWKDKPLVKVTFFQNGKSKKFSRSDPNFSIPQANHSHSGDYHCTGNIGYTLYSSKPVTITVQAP
# B1: exemplified IgG bispecific antibody (anti-TNFα / anti-IL23p19) (bispecific antibody)
# heavy 1: not shown
# light 1: not shown
# heavy 2: QVQLVQSGAEVKKPGSSVKVSCKASGYPFTRYVMHWVRKAPGQGLEWMGYINPYNDGVNYNEEFKGRVTITADTSTSTAYMELSSLRSEDTAVYYCARNWDTGLWGQGTTVTVSSASTKGPSVFPLAPSSKSTSGGTAALGCLVKDYFPEPVTVSWNSGALTSGVATGPAVLQSSGLYSLSSVVTVPSSSLGTQTYICNVNHKPSNTKVDKKVEPKSCDKTHTCPPCPAPELLGGPSVFLFPPKPKDTLMISRTPEVTCVVVDVSHEDPEVKFNWYVDGVEVHNAKTKPREEQYNSTYRVVSVLTVLHQDWLNGKEYKCKVSNKALPAPIEKTISKAKGQPREPQVSTLPPSREEMTKNQVSLMCLVYGFYPSDIAVEWESNGQPENNYKTTPPVLDSDGSFFLYSVLTVDKSRWQQGNVFSCSVMHEALHNHYTQKSLSLSPG
# light 2: RIQMTQSPSSLSASVGDRVTITCKASDHIGKFLTWYQDKPGKAPKLLIYGATSKLTGVPSRFSGSGSGTDFTLTISSLQPEDFATYYCQQYWSTPFTFGGGTKVEIKGQPKAAPSVTLFPPSSEELQANKATLVCYISDFYPGAVTVAWKADSSPVKAGVETTTPSKQSNNKYAAWSYLSLTPEQWKSHRSYSCQVTHEGSTVEKTVAPTEC
# modifications: N-terminal glutamine (residue 1) may be converted to pyroglutamic acid; C-terminal lysine (residue 445) may be truncated post-translationally; C-terminal lysine (residue 451) may be truncated post-translationally
# notes: Heterodimeric IgG1 of four different chains; also called exemplified bispecific antibody; IgG bispecific antibody of the present invention
# Legend:
# [1] = molecular target: non-cleavable form of human membrane TNFα on CHO cells (human, UniProt P01375 1-233); experiment: cell-based or functional assay
# [2] = molecular target: T1, human IL-23; experiment: cell-based or functional assay
# [3] = molecular target: T4, human TNFα (human, UniProt P01375 77-233); experiment: cell-based or functional assay
# [4] = molecular target: human FcγRIIIa (V158) on Jurkat NFAT-FF reporter cells (human, UniProt P08637 17-254); experiment: cell-based or functional assay
# [5] = molecular target: T5, human FcγRI (CD64) (human, UniProt P12314 16-288, limits assumed); experiment: SPR, Biacore T200, antibody captured on protein A, FcγR as analyte, 37 °C, N=3
# T5 construct: Soluble analyte in SPR
# Method: (§1) A CM5 chip (Biacore P/N BR-100-50) containing immobilized protein A (generated using standard NHS-EDC amine coupling) on all four flow cells is used to employ a capture methodology. IgG bispecific antibody samples are prepared by dilution of approximately 5 μg/mL into running buffer and approximately 300 RU is captured on the flow cells. Human FcγRI (produced from transient CHO cells and purified using IMAC and size exclusion chromatography) is prepared at final concentrations of 200.00, 100.00, 50.00, 25.00, 12.50, 6.25, 3.12, 1.56, and 0.78 nM by two-fold serial dilution into running buffer. Human FcγRIIa, FcγRIIb and FcγRIIIa (produced from transient CHO cells and purified using IMAC and size exclusion chromatography) are prepared at final concentrations of 10,000.0, 5,000, 2,500, 1,250, 625, 313, 157, 78, and 39 nM by two-fold serial dilution into running buffer.
# (§2) Each analysis cycle consists of: (1) capturing antibody samples on flow cells; (2) injection of each human FcγRI, FcγRIIa, FcγRIIb and FcγRIIIa concentration over the flow cells at 40 μL/min for 60 seconds followed by return to buffer flow for 120 seconds to monitor dissociation phase; (3) regeneration of chip surfaces with injection of 10 mM glycine, pH 2.0. for 30 seconds at 50 μL/min over all flow cells; and (4) equilibration of chip surfaces with a 50 μL (60-sec) injection of HBS-EP+ running buffer. Data are processed using standard reference-subtracted method fit to a 1:1 binding model using Biacore T200 […] Evaluation software, version 1.0, to determine the equilibrium dissociation constant (KD) which is calculated from the relationship KD=koff/kₒₙ, and is in molar units.
# [6] = molecular target: T2, human FcγRIIa (CD32a); experiment: as above
# Method: as §1, §2
# [7] = molecular target: T3, human FcγRIIb (CD32b); experiment: as above
# Method: as §1, §2
# [8] = molecular target: T6, human FcγRIIIa (CD16a) (human, UniProt P08637 17-208); experiment: as above
# T6 construct: Soluble analyte in SPR
# Method: as §1, §2
# [9] = molecular target: T1, human IL-23; experiment: SPR, Biacore T200, antibody captured on protein A, antigen as analyte, 37 °C, 1:1 model, n=3
# Method: (§3) A CM4 chip (Biacore P/N BR-100534) containing immobilized protein A (generated using standard NHS-EDC amine coupling) on all four flow cells is used to employ a capture methodology. IgG bispecific antibody samples are prepared by dilution of 5 μg/mL into running buffer and approximately 100-150 RU is captured on the flow cells. […] Human TNFα are prepared at final concentrations of 50.0, 25.0, 12.5, 6.25, 3.12, 1.56, 0.78, 0.39, 0.19 and 0 (blank) nM by dilution into running buffer.
# (§4) Each analysis cycle consists of (1) capturing antibody samples on flow cells (Fc3); (2) injection of each human IL-23 concentration over the flow cells at 80 μL/min for 200 seconds followed by return to buffer flow for 900 seconds to monitor dissociation phase; (3) injection of each human TNFα concentration over the flow cells at 80 µL/min for 200 seconds followed by return to buffer flow for 900 seconds to monitor dissociation phase; (4) regeneration of chip surfaces with injection of 10 mM glycine, pH 2.0, for 30 seconds at 50 μL/min over all flow cells; and (5) equilibration of chip surfaces with a 50 μL (60-sec) injection of HBS-EP+ running buffer. Data are processed using standard reference-subtracted method fit to a 1:1 binding model using Biacore T200 Evaluation software, version 1.0, to determine the association rate (kₒₙ, M⁻¹s⁻¹ units), dissociation rate (koff, s⁻¹ units), and RUₘₐₓ (RU units). The equilibrium dissociation constant (KD) is calculated from the relationship KD=koff/kₒₙ, and is in molar units.
# [10] = molecular target: T4, human TNFα; experiment: as above
# Method: as §3, §4
# [11] = molecular target: T7, human complement component C1q (human, UniProt P02745 23-245; P02746 28-253; P02747 29-245); experiment: ELISA, antibody coated on the plate (10 to 0.19 µg/mL), human C1q at 10 µg/mL, anti-C1q-HRP detection
# T7 construct: Bought protein; also called human C1q
# T7 sequence (P02745 23-245 limits assumed, chain 1 of 3): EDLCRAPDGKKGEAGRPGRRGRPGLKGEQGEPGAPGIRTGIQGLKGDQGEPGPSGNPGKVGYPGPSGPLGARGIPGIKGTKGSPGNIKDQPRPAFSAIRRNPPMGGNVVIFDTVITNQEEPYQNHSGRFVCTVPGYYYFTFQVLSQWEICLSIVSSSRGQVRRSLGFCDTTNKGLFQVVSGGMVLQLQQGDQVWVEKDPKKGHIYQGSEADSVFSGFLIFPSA
# T7 sequence (P02746 28-253 limits assumed, chain 2 of 3): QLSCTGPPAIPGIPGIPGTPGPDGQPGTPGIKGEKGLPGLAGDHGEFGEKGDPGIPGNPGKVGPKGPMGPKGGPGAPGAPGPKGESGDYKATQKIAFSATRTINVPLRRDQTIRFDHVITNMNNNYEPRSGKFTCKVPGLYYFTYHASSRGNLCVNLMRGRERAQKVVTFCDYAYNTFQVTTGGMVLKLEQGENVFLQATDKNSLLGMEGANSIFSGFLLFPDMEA
# T7 sequence (P02747 29-245 limits assumed, chain 3 of 3): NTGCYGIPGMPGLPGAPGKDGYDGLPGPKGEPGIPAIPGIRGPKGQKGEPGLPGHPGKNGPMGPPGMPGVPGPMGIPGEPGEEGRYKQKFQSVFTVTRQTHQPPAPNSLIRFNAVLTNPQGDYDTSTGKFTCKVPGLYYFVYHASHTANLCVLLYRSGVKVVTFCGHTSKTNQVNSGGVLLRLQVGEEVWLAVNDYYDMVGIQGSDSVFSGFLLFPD
# Method: Plates are incubated overnight at 4° C. with coating agent (to coat wells with antibody) followed with two hours of blocking (casein, 200 μL) at room temperature and then three washes with wash buffer (1×TBE with 0.05% Tween 20).
# 100 μL of human C1q (10 μg/mL) (MS Biomedical) in casein blocking reagent is added to each well and plates are incubated for 3 hours at room temperature. Following incubation plates are washed three times followed by addition of 100 μL/well (at 1:800 dilution) of Sheep anti-human C1q-HRP (Abcam #ab46191) in casein blocker. Plates are incubated for 1 hour at RT. Following incubation, plates are washed 6 times with wash buffer, and 100 μL/well of TMB Substrate (Pierce) is added to each well. Plates are incubated for 7 minutes followed by addition of 100 μL of 1.0N HC1 to each well to stop the reaction. Optical density is immediately measured using a colorimetric microplate reader set to 450 nm.
# T4 sequence (P01375 77-233 limits assumed): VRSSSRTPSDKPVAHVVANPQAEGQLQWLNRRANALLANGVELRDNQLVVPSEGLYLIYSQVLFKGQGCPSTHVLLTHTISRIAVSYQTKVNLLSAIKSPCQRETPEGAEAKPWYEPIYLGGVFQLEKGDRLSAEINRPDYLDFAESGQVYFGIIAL
# Chain of non-cleavable form of human membrane TNFα on CHO cells (P01375 whole entry): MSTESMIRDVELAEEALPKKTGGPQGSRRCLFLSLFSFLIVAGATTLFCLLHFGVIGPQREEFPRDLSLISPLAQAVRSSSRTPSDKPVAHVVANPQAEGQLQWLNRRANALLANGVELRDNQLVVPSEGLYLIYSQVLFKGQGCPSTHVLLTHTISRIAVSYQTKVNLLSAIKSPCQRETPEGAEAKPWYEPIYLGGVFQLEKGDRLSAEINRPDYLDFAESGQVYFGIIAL
# T6 sequence (P08637 17-208 limits assumed): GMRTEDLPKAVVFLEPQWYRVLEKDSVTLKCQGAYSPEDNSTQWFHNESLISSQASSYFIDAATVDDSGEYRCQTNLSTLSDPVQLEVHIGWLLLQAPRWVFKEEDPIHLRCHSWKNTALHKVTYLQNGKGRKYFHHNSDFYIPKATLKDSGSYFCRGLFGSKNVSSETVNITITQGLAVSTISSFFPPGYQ
# Chain of human FcγRIIIa (V158) on Jurkat NFAT-FF reporter cells (P08637 17-254 F176V limits assumed): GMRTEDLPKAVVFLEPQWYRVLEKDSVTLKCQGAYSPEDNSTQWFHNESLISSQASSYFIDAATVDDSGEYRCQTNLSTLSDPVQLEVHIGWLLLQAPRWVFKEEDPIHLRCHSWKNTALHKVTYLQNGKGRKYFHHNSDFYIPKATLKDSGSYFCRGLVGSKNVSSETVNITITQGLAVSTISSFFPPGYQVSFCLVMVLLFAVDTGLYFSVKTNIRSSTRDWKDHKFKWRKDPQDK
# T5 sequence (P12314 16-288 limits assumed): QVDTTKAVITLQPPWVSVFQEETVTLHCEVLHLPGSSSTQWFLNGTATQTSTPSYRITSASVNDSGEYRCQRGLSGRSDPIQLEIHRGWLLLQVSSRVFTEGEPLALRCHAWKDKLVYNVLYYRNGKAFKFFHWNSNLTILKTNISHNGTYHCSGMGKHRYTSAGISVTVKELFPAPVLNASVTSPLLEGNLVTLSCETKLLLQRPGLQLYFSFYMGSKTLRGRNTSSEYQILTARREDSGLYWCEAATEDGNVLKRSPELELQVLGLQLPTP
binder,measurement,setting,value
B1,"IC50, inhibition of killing of L929 cells by CHO cells carrying non-cleavable membrane bound human TNFα (MTT)",[1],3.99 nM
same,"relative EC50, human complement-mediated effector function (CDC) on CHO cells carrying non-cleavable human membrane TNFα (T74E construct as internal standard = 1)",[1],0.74 relative to internal standard
same,"IC50, inhibition of IL-23-induced Stat 3 phosphorylation (luciferase) in Kit225 cells",[2],0.066 pM
same,"IC50, inhibition of soluble human TNFα-induced killing of L929 cells (MTT)",[3],0.32 nM
same,"Relative EC50, induction of FcγRIIIa-mediated effector function (NFAT luciferase in Jurkat cells with CHO cells carrying non-cleavable human membrane TNFα; T74E construct as internal standard = 1)",[4],0.75 relative to internal standard
same,Kd,[5],0.0648 nM
same,Kd,[6],720 nM
same,Kd,[7],4000 nM
same,Kd,[8],260 nM
same,Kd,[9],0.245 nM
same,koff,[9],0.000101 s⁻¹
same,kon,[9],412000 M⁻¹ s⁻¹
same,Kd,[10],0.0496 nM
same,koff,[10],0.000155 s⁻¹
same,kon,[10],3.1e+06 M⁻¹ s⁻¹
same,binding result,[11],binds
